Experimental data reported in paper doi:10.1101/364463 (bioRxiv, 2019).
Positions count from the first letter of the chain named.

Columns and labels:
Assay in all cases: pull-down
[1] = target: T1, GST-PI31-S168D (Drosophila, UniProt Q9V637 1-270, S168D)
T1 sequence: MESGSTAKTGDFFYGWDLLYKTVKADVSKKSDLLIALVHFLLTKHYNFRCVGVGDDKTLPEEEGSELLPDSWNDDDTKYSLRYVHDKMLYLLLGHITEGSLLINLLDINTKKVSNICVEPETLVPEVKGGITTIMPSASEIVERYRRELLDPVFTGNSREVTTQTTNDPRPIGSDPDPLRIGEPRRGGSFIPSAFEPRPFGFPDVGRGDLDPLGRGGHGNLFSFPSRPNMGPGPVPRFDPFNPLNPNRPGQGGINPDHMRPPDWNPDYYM

[2] = target: T2, GST-PI31-S168E (Drosophila, UniProt Q9V637 1-270, S168E)
T2 sequence: T1 sequence with D168E

[3] = target: T3, GST-PI31-WT (Drosophila, UniProt Q9V637 1-270)
T3 sequence: T1 sequence with D168S

Measured: binding result

B1: FLAG-dDYNLL1 (recombinant, E. coli) (natural protein)
chain: MSDRKAVIKNADMSEEMQQDAVDCATQALEKYNIEKDIAAYIKKEFDKKYNPTWHCIVGRNFGSYVTHETRHFIYFYLGQVAILLFKSG
binds: all assays above
